Laboratory results published in the supplement of paper PMC9732359.
± gives the uncertainty stated by the source.

Assay: protein stability index of a GFP-peptide fusion (yeast GPS) (PSI 1-4); higher = more stable; sorted into four equal gates, so the index is relative within each strain
Outline: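 Each library plasmid carries Cherry plus GFP with a tiled 17-residue yeast protein peptide fused downstream, and the pooled library was carried in yeast. Mid-log cultures in leucine-free medium were sorted into four equal gates by GFP/Cherry ratio. Reads from Illumina sequencing of PCR-amplified plasmids from each gate were assigned to strains by barcodes. Per peptide, the protein stability index was computed as the summed products of gate read frequency and gate number.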

Sequence | protein stability index (doa10∆) | protein stability index (pdr5∆) | protein stability index (san1∆) | protein stability index (ubr1∆)
GELFLNESWKSSFEKFN [SRP72] | 3.23 ± 0.23 | 3.22 ± 0.11 | 2.79 ± 0.12 | 3.24 ± 0.073
DDDNSNVDYYNVAHRIK [SNF2] | 3.31 ± 0.048 | 3.15 ± 0.044 | 3.06 ± 0.031 | 3.23 ± 0.038
GEQIIVHPVNEREPVPL [RRP45] | 2.85 ± 0.12 | 3.35 ± 0.12 | – | 2.9 ± 0.17
HNQSPRNTYQSAMGKQA [RPB2] | 2.48 ± 0.063 | 2.77 ± 0.062 | 2.37 ± 0.06 | 2.25 ± 0.039
HLKHENANDETTAVEDE [RPB4] | 2.92 ± 0.067 | 3.08 ± 0.093 | 3.17 ± 0.086 | 3.17 ± 0.14
IPTKESLTRDFEQCCKE [YIL149C/MLP2] | 2.81 ± 0.078 | 2.96 ± 0.13 | 2.62 ± 0.088 | 2.88 ± 0.13
KETTIEKLSSEIENLDK [YIL149C/MLP2] | 2.94 ± 0.068 | 2.89 ± 0.071 | 2.9 ± 0.063 | 3.15 ± 0.056
NVKTSVSQLYRISEKSV [RPO31] | 3.04 ± 0.11 | 3.22 ± 0.1 | 3.12 ± 0.076 | 3.16 ± 0.083
VPDSKIRIYDLGKKKAT [RPL10] | 1.24 ± 0.076 | 1.35 ± 0.071 | 1.15 ± 0.13 | 1.05 ± 0.056
EIRPEMLGHYLGEFSIT [RPS15] | – | 3.02 ± 0.08 | 3.11 ± 0.19 | 2.87 ± 0.17
PFHDPEARLFNIWGTVR [ECM29] | 1.33 ± 0.26 | 1.43 ± 0.22 | – | –
FVSSGFDTSIKLDIISD [RPN14] | 2.39 ± 0.045 | 2.53 ± 0.047 | 2.23 ± 0.057 | 2.44 ± 0.035
FLKLANGGKFSKSNLIH [RGR1] | 2.65 ± 0.049 | 2.55 ± 0.061 | 2.87 ± 0.077 | 2.79 ± 0.059
DANRNANNIVNIVSDAG [GRR1] | 3.07 ± 0.068 | 3.06 ± 0.059 | 2.99 ± 0.041 | 2.97 ± 0.067
MKDRLVEWNDQVEKLGK [RPN9] | 3.4 ± 0.13 | 3.06 ± 0.1 | 3.36 ± 0.083 | 3.39 ± 0.085
SKELRAQYGIKALPIRR [RPL26A] | 3.44 ± 0.19 | 3.41 ± 0.17 | 3.49 ± 0.14 | –
KRSDLTGANSIYSVEKK [UBP6] | 3.09 ± 0.12 | 2.8 ± 0.15 | 2.57 ± 0.15 | 3.16 ± 0.056
TLDVEAFKSVVSTETFE [RPL27A] | 2.4 ± 0.069 | 2.74 ± 0.051 | 2.59 ± 0.051 | 2.46 ± 0.053
DDVVVLTGEAEIEQPVT [FAS1] | 3.47 ± 0.12 | 3.27 ± 0.12 | 2.85 ± 0.13 | 2.98 ± 0.099
LVGSWKKDRATGDADEP [RPO21] | 3.14 ± 0.22 | 3.55 ± 0.11 | 3.15 ± 0.11 | 3.46 ± 0.081
AFIDERASDLRMTIRTR [RRP43] | 1.81 ± 0.18 | 1.57 ± 0.11 | 1.24 ± 0.25 | 1.39 ± 0.12
KDDGAFVKFLSKKGSLE [RPL10] | 3.51 ± 0.18 | 3.32 ± 0.14 | 3.06 ± 0.068 | 3.25 ± 0.064
QNRSLQEHNIQDSNVMP [SNF2] | 3.19 ± 0.057 | 3.08 ± 0.053 | 2.92 ± 0.04 | 3.31 ± 0.04
GQRDLDRIAAQTLEEDE [RPS19A] | 3.21 ± 0.087 | 3.21 ± 0.091 | 3.29 ± 0.1 | 3.23 ± 0.097
ELLAYQFASPVRWIETQ [FAS2] | 1.77 ± 0.021 | 1.86 ± 0.019 | 1.92 ± 0.027 | 1.728 ± 0.016
HASKAIGLPRHSLAYLL [RRP6] | 2.24 ± 0.046 | 2.2 ± 0.048 | 2.37 ± 0.059 | 1.72 ± 0.037
EAVIDEKLEVIADELMK [ITC1] | – | – | 3.21 ± 0.25 | 3.27 ± 0.12

Sequence | protein stability index (doa10∆) | protein stability index (pdr5∆) | protein stability index (san1∆) | protein stability index (ubr1∆)
FPESIWKDFTVEIAFLF [YCG1] | 2.25 ± 0.06 | 2.43 ± 0.05 | 2.33 ± 0.067 | 2.29 ± 0.049
LKSASKETAPVIDTLAA [RPL28] | 2.07 ± 0.072 | 2.41 ± 0.11 | 2.68 ± 0.073 | 2.12 ± 0.087
RGEIREIEQVCKQVHDK [MED7] | 3.06 ± 0.077 | 3.27 ± 0.046 | 2.8 ± 0.062 | 2.87 ± 0.073
PLQNIHVRKVKLLKQPK [RPS1A] | 2.69 ± 0.075 | 2.82 ± 0.074 | 2.71 ± 0.051 | 2.53 ± 0.065
FHNAVFNSFRRFKSQFL [QCR8] | 2.31 ± 0.068 | 1.52 ± 0.046 | 1.6 ± 0.088 | 1.54 ± 0.046
RIHTNDNDIMNLGSRTK [SSN3] | 3.08 ± 0.048 | 2.97 ± 0.043 | 2.95 ± 0.035 | 3.03 ± 0.037
LEIALFKYRKARLEPGT [RPO31] | 3.24 ± 0.17 | 1.69 ± 0.13 | 2.37 ± 0.12 | 2.85 ± 0.09
AADVSAVDAKQLAQIRQ [YML103C/NUP188] | 2.25 ± 0.071 | 2.94 ± 0.073 | 3.25 ± 0.072 | 2.5 ± 0.057
ILEDDFAVALKNEPDYS [CDC53] | 3.3 ± 0.088 | 3.09 ± 0.14 | 3.24 ± 0.072 | 2.87 ± 0.12
GSNNAQTSRGLFGNNNT [YGL172W/NUP49] | 3.24 ± 0.087 | 3.25 ± 0.074 | 3.14 ± 0.046 | 3.16 ± 0.1
DNETPSKKTSPKATSSA [YOR098C/NUP1] | 2.1 ± 0.05 | 2.52 ± 0.049 | 2.41 ± 0.064 | 3.026 ± 0.029
IHLKQKLSESLDTRKEL [SMC3] | – | 3.03 ± 0.24 | 3.4 ± 0.18 | 3.49 ± 0.15
ERNAAYQKEYETAERNI [RPL7A] | 2.71 ± 0.12 | 2.61 ± 0.1 | 2.48 ± 0.095 | 2.62 ± 0.18
GISSTLVSANNDNNSPH [YLR018C/POM34] | 2.62 ± 0.051 | 2.89 ± 0.06 | 3.01 ± 0.058 | 2.96 ± 0.067
KVAKRTKIKPFIKVVNY [RPL27A] | 2.9 ± 0.09 | 2.8 ± 0.096 | 2.86 ± 0.06 | 2.64 ± 0.076
TSIANAFRRIMISEVPS [RPC40] | 1.71 ± 0.043 | 1.83 ± 0.046 | 2.45 ± 0.061 | 1.88 ± 0.042
FMGTAFNQEGDYNFKYG [PRP8] | 3.02 ± 0.11 | 3.1 ± 0.09 | 3.34 ± 0.098 | 3.18 ± 0.072
PFDDDEPPLSYEQHIEN [PRP8] | 2.42 ± 0.058 | 2.86 ± 0.092 | 3.06 ± 0.07 | 2.31 ± 0.053
TQIVAKFPETSYPILNE [SIN4] | 2.92 ± 0.091 | 3.02 ± 0.068 | 2.91 ± 0.081 | 2.89 ± 0.057
VRCVNCSKSIPKDKAIK [RPS26A] | 2.77 ± 0.067 | 3 ± 0.071 | 2.77 ± 0.063 | 2.82 ± 0.044
QQEAKYRNNEPAGFTHK [YDL088C/ASM4] | 2.88 ± 0.052 | 2.98 ± 0.046 | 2.6 ± 0.059 | 2.83 ± 0.045
AHSLSPKDYIKKLLEVH [CDC53] | 1.7 ± 0.042 | 2.23 ± 0.064 | 2.56 ± 0.056 | 1.77 ± 0.042
FRYITTWENEFLDSQRV [PRP8] | 2.77 ± 0.065 | 2.69 ± 0.059 | 2.48 ± 0.061 | 3.03 ± 0.046
MAKVEVNLAAIPLGKNV [RIP1] | 3.33 ± 0.3 | – | – | –
AAELQEKPLTPLKYTKL [SNF6] | 2.94 ± 0.13 | 3.02 ± 0.13 | 2.39 ± 0.17 | 2.78 ± 0.13
SIMVELKLPLEINYAFS [SIR3] | 1.31 ± 0.077 | 1.64 ± 0.064 | 1.55 ± 0.12 | 1.5 ± 0.058
